Positions count from the first letter of the chain named.
T1: human FcγRIIb (human, UniProt P31994 43-217)
T1 construct: also called human FcγR2b
T1 sequence: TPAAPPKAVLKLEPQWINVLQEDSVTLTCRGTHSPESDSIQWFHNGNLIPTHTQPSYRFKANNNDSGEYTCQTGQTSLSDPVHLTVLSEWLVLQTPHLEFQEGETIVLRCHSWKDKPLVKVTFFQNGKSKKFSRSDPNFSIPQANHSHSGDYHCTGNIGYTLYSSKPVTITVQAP

T2: human FcγRIIIb (NA1) (human, UniProt O75015 17-200)
T2 construct: also called human FcγR3b allelic variant NA1
T2 chain: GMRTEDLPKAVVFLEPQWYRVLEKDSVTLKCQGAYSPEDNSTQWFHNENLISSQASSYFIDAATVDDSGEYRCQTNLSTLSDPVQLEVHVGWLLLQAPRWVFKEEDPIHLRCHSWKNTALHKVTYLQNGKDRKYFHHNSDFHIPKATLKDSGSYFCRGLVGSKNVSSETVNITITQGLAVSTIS

B1: Anti-CD154 antibody (SLAPH0336a/SLAPL0336a) with Fc variant LALA+ACT3 (SG1044) (antibody)
heavy: EVQLVESGGGSVKPGGSLKLSCAASGFTFSDHYMYWVRQTPEKRLEWVAIISGGGSYTSYPDSMKGRFTISRDNAKNILHLQMSSLKSEDTAMYYCTRESNGKPGFAYWGQGTLVTVSAASTKGPSVFPLAPSSKSTSGGTAALGCLVKDYFPEPVTVSWNSGALTSGVHTFPAVLQSSGLYSLSSVVTVPSSSLGTQTYICNVNHKPSNTKVDKRVEPKSCDKTHTCPPCPAPEAAGGPSVFLFPPKPKDTLMISRTPEVTCVVVDVSHEDPEVKFNWYVDGVEVHNAKTKPREEQYNSTYRVVSVLTVLHQDWLNGKEYKCKVSNKALPAPIEKTISKAKGQPREPQVYTLPPSREEMTKNQVSLTCLVKGFYPSDIAVEWESNGQPENNYKTTPPVLDSDGSFFLYSKLTVDKSRWQQGNVFSCSVLHEALHAHTTRKELSLSP
light: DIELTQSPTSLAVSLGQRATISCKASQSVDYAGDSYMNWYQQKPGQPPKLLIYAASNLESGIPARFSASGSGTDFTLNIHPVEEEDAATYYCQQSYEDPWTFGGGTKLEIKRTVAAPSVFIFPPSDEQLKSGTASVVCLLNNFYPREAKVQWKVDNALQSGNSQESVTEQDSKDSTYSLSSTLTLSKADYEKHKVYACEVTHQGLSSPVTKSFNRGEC
B2: Anti-CD154 antibody (SLAPH0336a/SLAPL0336a) with Fc variant LALA+ACT3+KAES (SG1105) (antibody)
heavy: B1 heavy with K328A, E335S
light: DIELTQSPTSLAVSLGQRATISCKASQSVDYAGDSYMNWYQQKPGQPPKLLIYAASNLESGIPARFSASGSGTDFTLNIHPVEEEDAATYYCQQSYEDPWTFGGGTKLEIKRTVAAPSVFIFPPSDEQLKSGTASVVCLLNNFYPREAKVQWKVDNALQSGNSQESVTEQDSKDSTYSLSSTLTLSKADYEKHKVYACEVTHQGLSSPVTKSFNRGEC
notes: also called LALA+KAES+ACT3
B3: Anti-CD154 antibody (SLAPH0336a/SLAPL0336a) with Fc variant LALA+ACT5 (SG1045) (antibody)
heavy: B1 heavy with T438Y
light: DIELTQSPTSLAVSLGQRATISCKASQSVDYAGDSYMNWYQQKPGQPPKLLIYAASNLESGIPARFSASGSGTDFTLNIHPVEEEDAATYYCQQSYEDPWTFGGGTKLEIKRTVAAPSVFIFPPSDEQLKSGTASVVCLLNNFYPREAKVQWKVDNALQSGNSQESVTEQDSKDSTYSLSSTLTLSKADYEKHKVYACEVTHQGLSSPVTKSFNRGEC
B4: Anti-CD154 antibody (SLAPH0336a/SLAPL0336a) with Fc variant LALA+ACT5+KAES (SG1106) (antibody)
heavy: B1 heavy with K328A, E335S, T438Y
light: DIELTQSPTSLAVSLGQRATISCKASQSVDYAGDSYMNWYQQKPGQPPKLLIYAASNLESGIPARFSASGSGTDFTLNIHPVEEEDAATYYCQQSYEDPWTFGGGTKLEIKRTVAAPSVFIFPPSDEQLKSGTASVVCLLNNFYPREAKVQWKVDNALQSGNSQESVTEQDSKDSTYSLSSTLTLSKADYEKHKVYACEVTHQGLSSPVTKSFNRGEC
notes: also called LALA+KAES+ACT5

Molecular target: T3, Soluble human FcRn (human, UniProt P55899 24-297; P61769 21-119)
T3 construct: also called Biotinylated-FcRn
T3 sequence (P55899 24-297 limits assumed, chain 1 of 2): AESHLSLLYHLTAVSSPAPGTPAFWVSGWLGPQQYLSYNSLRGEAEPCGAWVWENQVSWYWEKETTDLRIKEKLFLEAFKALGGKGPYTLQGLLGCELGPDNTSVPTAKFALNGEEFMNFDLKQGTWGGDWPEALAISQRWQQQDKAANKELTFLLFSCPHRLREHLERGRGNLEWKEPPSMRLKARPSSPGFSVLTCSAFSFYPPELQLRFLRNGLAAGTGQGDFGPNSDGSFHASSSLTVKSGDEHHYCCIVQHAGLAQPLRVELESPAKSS
T3 sequence (P61769 21-119 limits assumed, chain 2 of 2): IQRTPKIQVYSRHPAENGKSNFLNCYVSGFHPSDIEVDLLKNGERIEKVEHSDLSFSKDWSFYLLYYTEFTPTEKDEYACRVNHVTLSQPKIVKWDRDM
Assay: SPR (Biacore T200, pH 7.4, 25 °C): biotinylated FcRn captured on a CAP chip; antibody injected at 100 nM alone (Ab alone) or as 1:1 complex with trimeric CD154 (CD154 IC); binding level / capture level

| Binder | binding result |
| --- | --- |
| B1 | binds |
| B2 | binds |
| B3 | binds |
| B4 | binds |

Molecular target: T4, human FcγRIIIa (158V) (human, UniProt P08637 17-208)
T4 construct: also called human FcγR3a allelic variant 158V
T4 sequence (P08637 other isoform, or with tags, fused parts or gaps limits assumed): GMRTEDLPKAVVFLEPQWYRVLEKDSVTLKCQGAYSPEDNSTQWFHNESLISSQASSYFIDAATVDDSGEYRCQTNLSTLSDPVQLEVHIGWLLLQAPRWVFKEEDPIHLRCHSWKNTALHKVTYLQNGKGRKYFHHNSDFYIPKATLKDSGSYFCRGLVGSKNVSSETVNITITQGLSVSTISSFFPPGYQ
Assay: SPR (Biacore T200, pH 7.4, 25 °C): His-tagged FcγR captured by anti-His antibody; antibody injected at 100 nM alone (Ab alone) or as 1:1 complex with trimeric CD154 (CD154 IC); binding level / capture level [F]

| Binder | binding result |
| --- | --- |
| B2 | binds |
| B3 | binds |
| B4 | binds |

Molecular target: T1, human FcγRIIb
Assay: SPR (Biacore T200, pH 7.4, 25 °C): His-tagged FcγR captured by anti-His antibody; antibody injected at 100 nM alone (Ab alone) or as 1:1 complex with trimeric CD154 (CD154 IC); binding level / capture level [D]

| Binder | binding result |
| --- | --- |
| B1 | no binding (tested: 100 nM) |
| B2 | no binding (tested: 100 nM) |
| B3 | no binding (tested: 100 nM) |
| B4 | no binding (tested: 100 nM) |

Molecular target: T2, human FcγRIIIb (NA1)
Assay: SPR (Biacore T200, pH 7.4, 25 °C): His-tagged FcγR captured by anti-His antibody; antibody injected at 100 nM alone (Ab alone) or as 1:1 complex with trimeric CD154 (CD154 IC); binding level / capture level [G]

| Binder | binding result |
| --- | --- |
| B1 | no binding (tested: 100 nM) |
| B2 | no binding (tested: 100 nM) |
| B3 | no binding (tested: 100 nM) |
| B4 | no binding (tested: 100 nM) |

Molecular target: T5, human FcγRIa (human, UniProt P12314 16-292)
T5 construct: also called human FcγR1a
T5 sequence (P12314 16-292 limits assumed): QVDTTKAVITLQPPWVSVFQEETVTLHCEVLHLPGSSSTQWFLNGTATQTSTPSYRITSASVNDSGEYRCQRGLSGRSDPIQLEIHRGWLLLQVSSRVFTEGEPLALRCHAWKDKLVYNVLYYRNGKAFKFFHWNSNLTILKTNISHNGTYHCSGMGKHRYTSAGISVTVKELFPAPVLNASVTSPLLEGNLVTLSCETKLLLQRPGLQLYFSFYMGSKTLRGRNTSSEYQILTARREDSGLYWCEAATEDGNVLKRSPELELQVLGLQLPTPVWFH
Assay: SPR (Biacore T200, pH 7.4, 25 °C): His-tagged FcγR captured by anti-His antibody; antibody injected at 100 nM alone (Ab alone) or as 1:1 complex with trimeric CD154 (CD154 IC); binding level / capture level [A]

| Binder | binding result |
| --- | --- |
| B1 | binds |
| B2 | binds |
| B3 | binds |
| B4 | binds |
